{"source": "the RNAGym collection of RNA variant scans (doi:10.7554/elife.80360)", "parents": {"B1": {"name": "Hairpin Ribozyme (parent)", "chain": "GUCCUCUUUCACGUGCGCGUGAAAGAGAGAAGUGAACCAGAGAAACACACGUUGUGGUAUAUUACCUGGUA"}}, "data": [{"variants_of": "B1", "test": "self-cleavage, relative activity (ratio to wild type); higher = more cleavage; co-transcriptional", "values": [{"variant": "U20C G34U", "self-cleavage": 1.32}, {"variant": "U20C G34A", "self-cleavage": 1.15}, {"variant": "G21A G69U", "self-cleavage": 0.197}, {"variant": "G21A G69C", "self-cleavage": 0.246}, {"variant": "U20G G27A", "self-cleavage": 0.31}, {"variant": "G21A C46G", "self-cleavage": 0.254}, {"variant": "G21A C46U", "self-cleavage": 0.173}, {"variant": "U20G G29U", "self-cleavage": 0.101}, {"variant": "U20G U33C", "self-cleavage": 0.109}, {"variant": "G21A G51A", "self-cleavage": 1.04}, {"variant": "G21A G51U", "self-cleavage": 0.99}, {"variant": "G21A G51C", "self-cleavage": 0.771}, {"variant": "U20C A61U", "self-cleavage": 0.21}, {"variant": "U20G", "self-cleavage": 0.879}, {"variant": "G21A A31C", "self-cleavage": 0.133}, {"variant": "G21A A31G", "self-cleavage": 0.424}, {"variant": "U20C C37U", "self-cleavage": 0.756}, {"variant": "G21A C48G", "self-cleavage": 0.192}, {"variant": "G21A U62C", "self-cleavage": 0.199}, {"variant": "G21A U62A", "self-cleavage": 0.135}, {"variant": "U20G U67G", "self-cleavage": 0.157}, {"variant": "U20C A45C", "self-cleavage": 0.105}, {"variant": "U20G A36G", "self-cleavage": 0.569}, {"variant": "U20G A61U", "self-cleavage": 0.142}, {"variant": "G21A U60G", "self-cleavage": 0.533}, {"variant": "G21A C66A", "self-cleavage": 0.201}, {"variant": "G21A G57C", "self-cleavage": 0.193}, {"variant": "G21A G57U", "self-cleavage": 0.232}, {"variant": "G21A A41C", "self-cleavage": 0.761}, {"variant": "G21A A41G", "self-cleavage": 0.765}, {"variant": "G21A A35U", "self-cleavage": 0.653}, {"variant": "U20G G25A", "self-cleavage": 0.469}, {"variant": "U20C A49G", "self-cleavage": 0.524}, {"variant": "U20G A47G", "self-cleavage": 0.0572}, {"variant": "U20G A47C", "self-cleavage": 0.299}, {"variant": "U20C G25U", "self-cleavage": 0.576}, {"variant": "U20C G25C", "self-cleavage": 0.513}, {"variant": "G21A U67C", "self-cleavage": 0.248}, {"variant": "G21A U67A", "self-cleavage": 0.23}, {"variant": "G21A A30G", "self-cleavage": 0.238}, {"variant": "G21A A30U", "self-cleavage": 0.144}, {"variant": "U20C A41C", "self-cleavage": 1.11}, {"variant": "U20C U60G", "self-cleavage": 0.534}, {"variant": "G21A A23C", "self-cleavage": 0.683}, {"variant": "G21A A23U", "self-cleavage": 0.825}, {"variant": "G21A A23G", "self-cleavage": 0.707}, {"variant": "G21A G29A", "self-cleavage": 0.166}, {"variant": "G21A G56C", "self-cleavage": 0.2}, {"variant": "U20C U63G", "self-cleavage": 0.169}, {"variant": "U20C U63A", "self-cleavage": 0.116}, {"variant": "U20G G69A", "self-cleavage": 0.421}, {"variant": "U20G G69C", "self-cleavage": 0.284}, {"variant": "U20G G69U", "self-cleavage": 0.22}, {"variant": "G21A A39G", "self-cleavage": 0.306}, {"variant": "U20G A35U", "self-cleavage": 0.581}, {"variant": "U20G A35G", "self-cleavage": 0.559}, {"variant": "U20C G42U", "self-cleavage": 0.172}, {"variant": "G21A U55G", "self-cleavage": 0.271}, {"variant": "G21A U55C", "self-cleavage": 0.242}, {"variant": "U20G G21A", "self-cleavage": 0.846}, {"variant": "U20G G21C", "self-cleavage": 0.75}, {"variant": "U20G U70G", "self-cleavage": 0.994}, {"variant": "G21A G40A", "self-cleavage": 0.312}, {"variant": "G21A G40C", "self-cleavage": 0.169}, {"variant": "U20C G68A", "self-cleavage": 0.251}, {"variant": "U20G U58G", "self-cleavage": 0.835}, {"variant": "U20C G69U", "self-cleavage": 0.23}, {"variant": "U20G C48U", "self-cleavage": 0.228}, {"variant": "G21A U33A", "self-cleavage": 0.151}, {"variant": "U20G C65U", "self-cleavage": 0.374}, {"variant": "U20G C37A", "self-cleavage": 0.186}, {"variant": "U20C U58G", "self-cleavage": 0.785}, {"variant": "G21A U52A", "self-cleavage": 0.78}, {"variant": "U20G C38G", "self-cleavage": 0.119}, {"variant": "U20G A26U", "self-cleavage": 0.683}, {"variant": "U20C G57A", "self-cleavage": 0.167}, {"variant": "U20C G57U", "self-cleavage": 0.341}, {"variant": "U20C G21C", "self-cleavage": 0.778}, {"variant": "U20C G29A", "self-cleavage": 0.181}, {"variant": "U20G G68A", "self-cleavage": 0.14}, {"variant": "U20G G56A", "self-cleavage": 0.0796}, {"variant": "U20G G56U", "self-cleavage": 0.191}, {"variant": "U20C G27U", "self-cleavage": 0.181}, {"variant": "U20G C46A", "self-cleavage": 0.229}, {"variant": "U20G C46G", "self-cleavage": 0.219}, {"variant": "U20G A24G", "self-cleavage": 0.673}, {"variant": "U20C C50A", "self-cleavage": 0.206}, {"variant": "G21A G34C", "self-cleavage": 1.11}, {"variant": "U20C A44U", "self-cleavage": 0.115}, {"variant": "U20C A44G", "self-cleavage": 0.204}, {"variant": "U20C U67A", "self-cleavage": 0.213}, {"variant": "G21C A23G", "self-cleavage": 0.77}, {"variant": "G21A U70C", "self-cleavage": 0.758}, {"variant": "G21A U70G", "self-cleavage": 0.821}, {"variant": "U20G A28C", "self-cleavage": 0.462}, {"variant": "U20G A28G", "self-cleavage": 1.01}, {"variant": "U20C A64G", "self-cleavage": 0.558}, {"variant": "U20C A64C", "self-cleavage": 0.151}, {"variant": "U20G A44G", "self-cleavage": 0.143}, {"variant": "U20G A44C", "self-cleavage": 0.162}, {"variant": "U20C C48A", "self-cleavage": 0.221}, {"variant": "U20G A71C", "self-cleavage": 1.25}, {"variant": "U20G G51C", "self-cleavage": 0.572}, {"variant": "U20C U52G", "self-cleavage": 1.12}, {"variant": "U20C U52C", "self-cleavage": 1.03}, {"variant": "U20C U52A", "self-cleavage": 0.957}, {"variant": "U20G U60G", "self-cleavage": 0.662}, {"variant": "U20C G40C", "self-cleavage": 0.218}, {"variant": "U20G A39U", "self-cleavage": 0.311}, {"variant": "U20G A43C", "self-cleavage": 0.214}, {"variant": "U20G A43G", "self-cleavage": 0.206}, {"variant": "U20G A43U", "self-cleavage": 0.189}, {"variant": "U20C A43G", "self-cleavage": 0.105}, {"variant": "U20G A45C", "self-cleavage": 0.16}, {"variant": "U20C A59U", "self-cleavage": 0.157}, {"variant": "U20C A59G", "self-cleavage": 0.149}, {"variant": "G21C A22G", "self-cleavage": 0.786}, {"variant": "U20G G40U", "self-cleavage": 0.206}, {"variant": "U20G G40A", "self-cleavage": 0.296}, {"variant": "G21A C50G", "self-cleavage": 0.217}, {"variant": "G21A", "self-cleavage": 0.809}, {"variant": "G21C", "self-cleavage": 0.812}, {"variant": "U20G U53G", "self-cleavage": 0.702}, {"variant": "G21A A45C", "self-cleavage": 0.16}, {"variant": "G21A A45G", "self-cleavage": 0.177}, {"variant": "U20G A41G", "self-cleavage": 0.687}, {"variant": "U20G A23C", "self-cleavage": 0.83}, {"variant": "U20G A59U", "self-cleavage": 0.123}, {"variant": "U20G U63C", "self-cleavage": 0.255}, {"variant": "U20G U63A", "self-cleavage": 0.171}, {"variant": "U20G U63G", "self-cleavage": 0.265}, {"variant": "U20C G54U", "self-cleavage": 0.386}, {"variant": "U20C G54A", "self-cleavage": 0.544}, {"variant": "G21A G27C", "self-cleavage": 0.195}, {"variant": "G21A G27A", "self-cleavage": 0.346}, {"variant": "G21A A24G", "self-cleavage": 0.576}, {"variant": "G21A A24C", "self-cleavage": 0.563}, {"variant": "U20C A47C", "self-cleavage": 0.358}, {"variant": "U20C A47G", "self-cleavage": 0.159}, {"variant": "U20C A71G", "self-cleavage": 1.12}, {"variant": "U20G A49G", "self-cleavage": 0.364}, {"variant": "U20G A49C", "self-cleavage": 0.172}, {"variant": "U20C G51A", "self-cleavage": 1.19}, {"variant": "U20G U52C", "self-cleavage": 0.998}, {"variant": "U20G U52A", "self-cleavage": 1.09}, {"variant": "G21A A44U", "self-cleavage": 0.215}, {"variant": "G21A A44G", "self-cleavage": 0.142}, {"variant": "G21A A44C", "self-cleavage": 0.116}, {"variant": "U20G U62G", "self-cleavage": 0.323}, {"variant": "U20G U62A", "self-cleavage": 0.149}, {"variant": "G21A U53G", "self-cleavage": 0.699}, {"variant": "U20C U53C", "self-cleavage": 0.998}, {"variant": "G21A A61C", "self-cleavage": 0.253}, {"variant": "U20C U70A", "self-cleavage": 1.08}, {"variant": "U20C U70C", "self-cleavage": 0.945}, {"variant": "U20C U33A", "self-cleavage": 0.0957}, {"variant": "U20C U33G", "self-cleavage": 0.0535}, {"variant": "G21A G68U", "self-cleavage": 0.165}, {"variant": "G21A U58A", "self-cleavage": 0.533}, {"variant": "G21A U58C", "self-cleavage": 0.916}, {"variant": "G21A A22C", "self-cleavage": 0.581}, {"variant": "G21A A22U", "self-cleavage": 0.771}, {"variant": "G21A G25A", "self-cleavage": 0.239}, {"variant": "G21A G25C", "self-cleavage": 0.358}, {"variant": "U20G C66U", "self-cleavage": 0.411}, {"variant": "U20G G57C", "self-cleavage": 0.123}, {"variant": "U20C G32A", "self-cleavage": 0.274}]}]}
